According to PMC9076019, “HSP90 N‐terminal inhibitors target oncoprotein MORC2 for autophagic degradation and suppress MORC2‐driven breast cancer progression” (Clinical and Translational Medicine, 2022):

B1: Full-length Flag-MORC2 (natural protein, human, UniProt Q9Y6X9-1 1-1032, looked up)
chain: MAFTNYSSLNRAQLTFEYLHTNSTTHEFLFGALAELVDNARDADATRIDIYAERREDLRGGFMLCFLDDGAGMDPSDAASVIQFGKSAKRTPESTQIGQYGNGLKSGSMRIGKDFILFTKKEDTMTCLFLSRTFHEEEGIDEVIVPLPTWNARTREPVTDNVEKFAIETELIYKYSPFRTEEEVMTQFMKIPGDSGTLVIIFNLKLMDNGEPELDIISNPRDIQMAETSPEGTKPERRSFRAYAAVLYIDPRMRIFIHGHKVQTKRLSCCLYKPRMYKYTSSRFKTRAEQEVKKAEHVARIAEEKAREAESKARTLEVRLGGDLTRDSRVMLRQVQNRAITLRREADVKKRIKEAKQRALKEPKELNFVFGVNIEHRDLDGMFIYNCSRLIKMYEKVGPQLEGGMACGGVVGVVDVPYLVLEPTHNKQDFADAKEYRHLLRAMGEHLAQYWKDIAIAQRGIIKFWDEFGYLSANWNQPPSSELRYKRRRAMEIPTTIQCDLCLKWRTLPFQLSSVEKDYPDTWVCSMNPDPEQDRCEASEQKQKVPLGTFRKDMKTQEEKQKQLTEKIRQQQEKLEALQKTTPIRSQADLKKLPLEVTTRPSTEEPVRRPQRPRSPPLPAVIRNAPSRPPSLPTPRPASQPRKAPVISSTPKLPALAAREEASTSRLLQPPEAPRKPANTLVKTASRPAPLVQQLSPSLLPNSKSPREVPSPKVIKTPVVKKTESPIKLSPATPSRKRSVAVSDEEEVEEEAERRKERCKRGRFVVKEEKKDSNELSDSAGEEDSADLKRAQKDKGLHVEVRVNREWYTGRVTAVEVGKHVVRWKVKFDYVPTDTTPRDRWVEKGSEDVRLMKPPSPEHQSLDTQQEGGEEEVGPVAQQAIAVAEPSTSECLRIEPDTTALSTNHETIDLLVQILRNCLRYFLPPSFPISKKQLSAMNSDELISFPLKEYFKQYEVGLQNLCNSYQSRADSRAKASEESLRTSERKLRETEEKLQKLRTNIVALLQKVQEDIDINTDDELDAYIEDLITKGD
notes: MORC2, human, full length (residues 1-1032); source: HEK293T, transfected, in cytosolic and nuclear fractions
B2: MORC family CW-type zinc finger 2 (MORC2) (natural protein, human (endogenous in MCF-7 and T47D), UniProt Q9Y6X9 1-1032, looked up)
chain: B1 chain
notes: MORC2, human, endogenous in breast cancer cells; source: endogenous, MCF-7 and T47D lysates

How the values were obtained:
[1] = target: the molecule itself; test: cross-linking; nuclear fraction of HEK293T cells transfected with Flag-MORC2 (48 h); chemical cross-linking with 0.05% glutaraldehyde on ice for 5 min; immunoblotting
[2] = target: the molecule itself; test: cross-linking; endogenous MORC2; total lysates (NP40 buffer) of MCF-7 and T47D cells treated with DMSO, 1 μM 17-AAG, AUY922, STA-9090 or 10 μM NB for 12 h; 0.05% glutaraldehyde on ice for 5 min; immunoblotting

Row | Protein | stoichiometry N [1] | stoichiometry N [2]
1 | B1 | 2 | 
2 | B2 |  | 2
